Assay results reported in paper PMC5309844, “PDI regulates seizure activity via NMDA receptor redox in rats” (Scientific Reports, 2017).

Experiments:
[1] = molecular target: T1, NMDA receptor NR1 subunit (rat (endogenous in hippocampus), UniProt P35439 19-938); test: co-IP; rat hippocampal tissue lysed in RIPA buffer; equal amounts of total protein precipitated with the appropriate primary antibodies and protein G sepharose at 4 °C overnight; Western blot; normal, chronic epileptic, and control siRNA- or PDI siRNA-infused epileptic animals; settings: partners not purified
T1 construct: NR1 subunit of the N-methyl-D-aspartate receptor, rat, endogenous in the hippocampus; source: endogenous, rat hippocampal tissue lysate (RIPA buffer)

[2] = molecular target: T2, NMDA receptor NR2A subunit (rat (endogenous in hippocampus), UniProt Q00959 23-1464); test: as above; settings: partners not purified
T2 construct: NR2A subunit of the N-methyl-D-aspartate receptor, rat, endogenous in the hippocampus; source: endogenous, rat hippocampal tissue lysate (RIPA buffer)
T2 sequence (Q00959 23-1464): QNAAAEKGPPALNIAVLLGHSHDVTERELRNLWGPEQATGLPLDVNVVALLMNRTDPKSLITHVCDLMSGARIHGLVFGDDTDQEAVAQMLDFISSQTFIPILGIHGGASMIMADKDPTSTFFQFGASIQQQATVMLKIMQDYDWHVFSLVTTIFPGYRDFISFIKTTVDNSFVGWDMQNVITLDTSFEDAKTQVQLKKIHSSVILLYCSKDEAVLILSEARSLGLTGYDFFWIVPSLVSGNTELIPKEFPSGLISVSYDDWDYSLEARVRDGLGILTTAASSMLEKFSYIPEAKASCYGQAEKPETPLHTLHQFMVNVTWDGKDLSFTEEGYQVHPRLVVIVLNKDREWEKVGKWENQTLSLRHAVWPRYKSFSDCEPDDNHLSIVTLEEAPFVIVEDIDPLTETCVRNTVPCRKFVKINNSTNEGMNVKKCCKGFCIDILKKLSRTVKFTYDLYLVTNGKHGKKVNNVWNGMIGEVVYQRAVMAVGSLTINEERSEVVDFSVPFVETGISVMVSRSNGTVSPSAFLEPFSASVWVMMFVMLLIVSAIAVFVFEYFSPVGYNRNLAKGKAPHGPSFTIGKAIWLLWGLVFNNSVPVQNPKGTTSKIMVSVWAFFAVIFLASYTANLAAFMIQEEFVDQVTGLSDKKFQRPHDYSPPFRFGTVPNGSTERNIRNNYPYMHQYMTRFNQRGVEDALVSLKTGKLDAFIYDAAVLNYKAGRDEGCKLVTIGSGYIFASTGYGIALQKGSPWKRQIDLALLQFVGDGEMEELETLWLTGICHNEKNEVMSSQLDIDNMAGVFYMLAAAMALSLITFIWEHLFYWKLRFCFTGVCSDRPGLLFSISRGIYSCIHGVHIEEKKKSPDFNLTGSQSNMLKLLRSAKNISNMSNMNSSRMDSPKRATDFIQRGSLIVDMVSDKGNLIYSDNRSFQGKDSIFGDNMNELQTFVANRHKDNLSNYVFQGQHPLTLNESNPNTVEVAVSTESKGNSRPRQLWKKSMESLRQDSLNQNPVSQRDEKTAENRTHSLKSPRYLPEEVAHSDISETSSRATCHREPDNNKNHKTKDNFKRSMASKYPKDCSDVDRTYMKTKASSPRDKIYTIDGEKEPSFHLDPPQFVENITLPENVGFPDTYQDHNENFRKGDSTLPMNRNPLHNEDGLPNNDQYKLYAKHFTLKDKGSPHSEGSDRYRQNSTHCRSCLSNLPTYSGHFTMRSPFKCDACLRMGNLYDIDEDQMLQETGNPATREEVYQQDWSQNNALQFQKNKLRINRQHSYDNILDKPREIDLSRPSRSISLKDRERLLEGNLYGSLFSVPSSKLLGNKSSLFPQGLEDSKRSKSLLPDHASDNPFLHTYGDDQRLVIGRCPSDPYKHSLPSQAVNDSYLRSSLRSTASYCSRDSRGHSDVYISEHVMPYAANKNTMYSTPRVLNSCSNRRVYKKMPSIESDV

fold of co-precipitation in epileptic against normal animals [1]: ~2.4 fold
fold of co-precipitation in epileptic against normal animals [2]: ~2.4 fold
B1: Protein disulfide isomerase (enzyme, rat (endogenous in hippocampus), UniProt P04785 20-509, looked up)
chain: DALEEEDNVLVLKKSNFAEALAAHNYLLVEFYAPWCGHCKALAPEYAKAAAKLKAEGSEIRLAKVDATEESDLAQQYGVRGYPTIKFFKNGDTASPKEYTAGREADDIVNWLKKRTGPAATTLSDTAAAESLVDSSEVTVIGFFKDAGSDSAKQFLLAAEAVDDIPFGITSNSDVFSKYQLDKDGVVLFKKFDEGRNNFEGEITKEKLLDFIKHNQLPLVIEFTEQTAPKIFGGEIKTHILLFLPKSVSDYDGKLSNFKKAAEGFKGKILFIFIDSDHTDNQRILEFFGLKKEECPAVRLITLEEEMTKYKPESDELTAEKITQFCHHFLEGKIKPHLMSQELPEDWDKQPVKVLVGKNFEEVAFDEKKNVFVEFYAPWCGHCKQLAPIWDKLGETYKDHENIVIAKMDSTANEVEAVKVHSFPTLKFFPASADRTVIDYNGERTLDGFKKFLESGGQDGAGDNDDLDLEEALEPDMEEDDDQKAVKDEL
notes: Protein disulfide isomerase (PDI), rat, endogenous in the hippocampus of Sprague-Dawley rats; also called PDI; source: endogenous, rat hippocampal tissue lysate (RIPA buffer)
